{"source": "paper doi:10.1101/2020.03.06.980961", "binders": {"B1": {"name": "LSP duplex (dsDNA)", "DNA 1": "TACCGCCAAAAG", "DNA 2": "CTTTTGGCGGTA"}}, "assay_in_all_cases": "fluorescence anisotropy", "key": {"TFB2M-Δ3": {"target": "T1, TFB2M-Δ3 (human, UniProt Q9H5Q4 20-393)", "T1 sequence": "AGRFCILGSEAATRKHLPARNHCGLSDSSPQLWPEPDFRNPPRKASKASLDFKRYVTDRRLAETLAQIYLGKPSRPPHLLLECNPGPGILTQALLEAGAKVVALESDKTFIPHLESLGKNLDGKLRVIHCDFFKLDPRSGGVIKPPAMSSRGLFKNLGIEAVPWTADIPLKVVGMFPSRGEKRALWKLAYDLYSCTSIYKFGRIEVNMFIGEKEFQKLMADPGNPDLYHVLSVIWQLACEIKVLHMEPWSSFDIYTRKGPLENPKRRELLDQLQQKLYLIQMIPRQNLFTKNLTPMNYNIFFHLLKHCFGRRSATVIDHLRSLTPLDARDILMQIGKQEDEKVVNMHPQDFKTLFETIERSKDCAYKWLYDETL"}, "TFB2M-Δ13": {"target": "T2, TFB2M-Δ13 (human, UniProt Q9H5Q4 20-383)", "T2 sequence": "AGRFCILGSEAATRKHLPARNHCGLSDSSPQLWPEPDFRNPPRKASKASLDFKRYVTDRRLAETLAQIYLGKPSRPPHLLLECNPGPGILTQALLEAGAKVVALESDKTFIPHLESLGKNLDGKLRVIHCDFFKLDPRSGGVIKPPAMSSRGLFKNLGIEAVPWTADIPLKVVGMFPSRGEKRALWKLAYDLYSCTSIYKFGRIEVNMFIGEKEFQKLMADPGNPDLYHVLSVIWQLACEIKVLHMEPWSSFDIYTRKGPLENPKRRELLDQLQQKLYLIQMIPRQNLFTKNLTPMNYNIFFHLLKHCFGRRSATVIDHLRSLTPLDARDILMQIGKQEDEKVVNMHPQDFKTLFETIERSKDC"}, "TFB2M-WT [1]": {"target": "T3, TFB2M-WT (human, UniProt Q9H5Q4 20-396)", "T3 sequence": "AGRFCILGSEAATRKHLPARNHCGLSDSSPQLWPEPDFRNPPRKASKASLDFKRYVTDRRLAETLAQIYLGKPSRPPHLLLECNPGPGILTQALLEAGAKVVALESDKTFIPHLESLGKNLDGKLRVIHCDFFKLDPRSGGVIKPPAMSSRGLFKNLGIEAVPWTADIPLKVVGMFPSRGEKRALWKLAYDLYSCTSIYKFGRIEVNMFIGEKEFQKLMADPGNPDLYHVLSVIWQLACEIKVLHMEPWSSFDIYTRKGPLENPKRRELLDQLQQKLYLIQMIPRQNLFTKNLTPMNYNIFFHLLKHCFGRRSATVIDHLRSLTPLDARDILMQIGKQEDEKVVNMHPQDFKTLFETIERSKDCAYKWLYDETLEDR"}, "TFB2M-WT [2]": {"target": "T3, TFB2M-WT", "remark": "listed apart in the source"}, "Mtf1-Δ20 [3]": {"target": "T4, Mtf1-Δ20 (Saccharomyces cerevisiae, UniProt P14908 1-321)", "T4 sequence": "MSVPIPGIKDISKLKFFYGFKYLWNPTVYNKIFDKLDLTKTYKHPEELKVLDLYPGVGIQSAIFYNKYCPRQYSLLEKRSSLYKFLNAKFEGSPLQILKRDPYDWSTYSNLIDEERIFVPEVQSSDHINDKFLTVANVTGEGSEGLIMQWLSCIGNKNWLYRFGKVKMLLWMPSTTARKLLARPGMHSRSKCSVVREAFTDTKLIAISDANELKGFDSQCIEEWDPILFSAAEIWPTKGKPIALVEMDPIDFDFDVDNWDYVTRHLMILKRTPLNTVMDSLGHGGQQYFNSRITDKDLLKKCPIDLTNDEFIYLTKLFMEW"}, "Mtf1-Δ20 [4]": {"target": "T4, Mtf1-Δ20", "remark": "listed apart in the source"}, "TFB2M-WT [5]": {"target": "T3, TFB2M-WT", "remark": "listed apart in the source"}, "TFB2M-WT [6]": {"target": "T3, TFB2M-WT", "remark": "listed apart in the source"}}, "note": "Where two headings read alike, the source gives them in different places."}
{"binder": "TACCGCCAAAAG (ssDNA)", "note": "[LSP NT]", "values": [{"measurement": "Kd", "setting": "TFB2M-Δ3", "value": "92 ± 3.3", "unit": "nM"}, {"measurement": "Kd", "setting": "TFB2M-Δ13", "value": "46 ± 5.2", "unit": "nM"}, {"measurement": "Kd", "setting": "TFB2M-WT [1]", "value": "169 ± 18", "unit": "nM"}]}
{"binder": "ATATAAGTAATA (ssDNA)", "note": "[15S NT]", "values": [{"measurement": "Kd", "setting": "TFB2M-WT [2]", "value": 130, "unit": "nM"}, {"measurement": "Kd", "setting": "Mtf1-Δ20 [3]", "value": "~870", "unit": "nM"}, {"measurement": "Kd", "setting": "Mtf1-Δ20 [4]", "value": "51 ± 2.8", "unit": "nM"}]}
{"binder": "B1", "values": [{"measurement": "binding signal", "setting": "TFB2M-WT [5]", "value": "~3 fold higher affinity than LSP NT"}]}
{"binder": "TTTTTTTTTTTT (ssDNA)", "note": "[dT12]", "values": [{"measurement": "binding result", "setting": "TFB2M-WT [6]", "value": "binds"}]}
